T1: human IL-1α (human, UniProt P01583 113-271)
T1 construct: also called IL-1alpha; hIL-1α
T1 sequence (looked up): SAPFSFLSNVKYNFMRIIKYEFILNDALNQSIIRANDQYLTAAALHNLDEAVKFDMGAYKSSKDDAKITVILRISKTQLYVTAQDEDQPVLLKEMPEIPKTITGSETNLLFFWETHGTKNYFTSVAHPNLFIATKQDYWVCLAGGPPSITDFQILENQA


target: T1, human IL-1α; experiment: Table 62 IC50; RBA presumed

IC50 [nM] | Binder
> 100 | ABT1-141-1 (other, VK dAb) VL: DIQMTQSPSSLSASVGDRVTITCRASQWIQKQLAWYQQKPGKAPKLLIYSGSWLQSGVPSRFSGSGSGTDFTLTISSLQPEDFATYYCQQHLRVPFTLGQGTKVEIKR
20 | ABT1-141-6 (other, VK dAb) VL: DIQMTQSPSSLSASVGDRVTITCRASQWIQKQLAWYQQKPGKAPKLLIYSSSYLQSGVPSRFSGSGSGTDFTLTISSLQPEDFATYYCLQHLRVPFTFGQGTKVEIKR
10 | ABT1-141-8 (other, VK dAb) VL: DIQMTQSPSSLSASVGDRVTITCRASQWIQKQLAWYQLKPGKAPKLLIYSSSWLQSGVPSRFSGSGSGTDFTLTISSLQPEDFATYYCQQHLRVPFTFGQGTKVEIKR
80 | ABT1-141-3 (other, VK dAb) VL: DIQMTQSPSSLSASVGDRVTITCRASQWIQKQLAWYQQKPGKTPKLLIYSQSHLQSGVPSRFSGSGSGTDFTLTISSLQPEDFATYYCQQHLRVPFTFGQGTKVEIKR
10 | ABT1-141-7 (other, VK dAb) VL: DIQMTQSPSSLSASVGDRITITCRASQWIQKQLAWYQLKPGKAPKLLIYSSSYLQSGVPSRFSGSGSGTDFTLTISSLQPEDFATYYCQQHLRVPFTFGQGTKVEIKR
10 | ABT1-141-9 (other, VK dAb) VL: DIQVTQSPSSLSASVGDRVTITCRASQWIQKQLAWYQQKPGKAPKLLIYSSSWLQSGVPSRFSGSGSGTDFTLTISSLQPEDFATYYCQQHLRVPFTFGQGTKVEIKR
300 | ABT1-157 (other, VK dAb) VL: DIQMTQSPSSLSASVGDRVTITCRASQSISSYLNWYQQKPGKAPKLLIGGVSGLQSGVPSRFSGSGSGTDFTLTISSLQPEDFATYYCMQWSRPPRTFGQGTKVEIKR
> 1000 | ABT1-166 (other, VK dAb) VL: DIQMTQSPSSLSASVGDRVTITCRASQSISSYLNWYQQKPGKAPKLLIGGLSGLQSGVPSRFSGSGSGTDFTLTISSLQPEDFATYYCGQWARAPMTFGQGTKVEIKR
> 1000 | ABT1-171 (other, VK dAb) VL: DIQMTQSPSSLSASVGDRVTITCRASQSISSYLNWYQQKPGKAPKLLIGGRSGLQSGVPSRFSGSGSGTDFTLTISSLQPEDFATYYCMQWFRPPRTFGQGTKVEIKR
> 1000 | ABT1-170 (other, VK dAb) VL: DIQMTQSPSSLSASVGDRVTITCRASQSISSYLNWYQQKPGKAPKLLIGGRSGLQSGVPSRFSGSGSGTDFTLTISSLQPEDFATYYCKQWYRYPSTFGQGTKVEIKR
> 1000 | ABT1-167 (other, VK dAb) VL: DIQMTQSPSSLSASVGDRVTITCRASQSISSYLNWYQQKPGKAPKLLIGGLSGLQSGVPSRFSGSGSGTDFTLTISSLQPEDFATYYCMQWWRYPPTFGQGTKVEIKR
> 1000 | ABT1-168 (other, VK dAb) VL: DIQMTQSPSSLSASVGDRVTITCRASQSISSYLNWYQQKPGKAPKLLIGGLSGLQSGVPSRFSGSGSGTDFTLTISSLQPEDFATYYCLQWFSEPATFGQGTKVEIKR
150 | ABT1-150 (other, VK dAb) VL: DIQMTQSPSSLSASVGDRVTITCRASQSISSYLNWYQQKPGKAPKLLIGGVSGLQSGVPSRFSGSGSGTDFTLTISSLQPEDFATYYCMQWWRWPSTFGQGTKVEIKRAAAEQKLISEED
300 | ABT1-152 (other, VK dAb) VL: DIQMTQSPSSLSASVGDRVTITCRASQSISSYLNWYQQKPGKAPKLLIGGRSGLQSGVPSRFSGSGSGTDFTLTIGSLQPEDFATYYCMQWYRAPSTFGQGTKVEIKRAAAEQKLISEED
200 | ABT1-151 (other, VK dAb) VL: DIQMTQSPSSLSASVGDRVTITCRASQSISSYLNWYQQKPGKAPKLLIGGRSGLQSGVPSRFSGSGSGTDFTLTISSLQPEDFATYYCGQWYRHPATFGQGTKVEIKRAAAEQKLISEED
300 | ABT1-132 (other, VK dAb) VL: DIQMTQSPSSLSASVGDRVTITCRASQNIATALLWYQQKPGKAPRLLIYDSSQLQSGVPSRFSGSGSGTDFTLTISSLQPEDFATYYCQQMYWVPFTFGQGTKVEIKR
10 | ABT1-141-14 (other, VK dAb) VL: DIQMTQSPSSLSASVGDRVTITCRASQWIQKQLAWYQQKPGKAPRLLIYSSSYLQSGVPSRFSGSGSGTDFTLTISSLQPEDFATYYCQQNLSVPFTFGQGTKVEIKR
80 | ABT1-139 (other, VH dAb) VH: EVQLLESGGGLVQPGGSLRLSCAASGFTFSDYTMIWVRQAPGKGLEWVSSISARGWGTYYADSVKGRFTISRDNSKNTLYLQMNSLRAEDTAVYYCAKGSPQLVLPFDYWGQGTLVTVSS

IC50 [nM] | Binder
0.5 | ABT1-95-153 (other, VK dAb) VL: DIQMTQSPSSLSASVGDRVTITCRASQPIIRNLRWYQQKPGKAPKLLIYSSSYLEPGVPSRFSGSGSGTGFTLTISSLQPEDFATYHCQQGYRWPVTFGQGTKVEIKR
> 1000 | ABT1-154 (other, VK dAb) VL: DIQMTQSPSSLSASVGDRVTITCRASTEIVRNLRWYQQKPGKAPKLLISGVSGLQSGVPSRFSGSGSGTDFTLTISSLQPEDFATYYCVQGYSWPVTFGQGTKVEIKR
10 | ABT1-141-35 (other, VK dAb) VL: DIQMTQSPSSLSASVGDRVTITCRASQWIQKQLAWYQQKPGKAPKLLIYSASWLQSGVPSRFSGSGSGTDFTLTISSLQPEDFATYYCQQHLRVPMTFGQGTKVEIKR
30 | ABT1-141-10 (other, VK dAb) VL: DIQMTQSPSSLSASVGDRVTITCRASQWIQKQLAWYQQKPGKAPKLLIYSSSYLQSGVPSRFSGSGSGTDFTLTISSLQPEDFATYYCQQSLRVPFTFGQGTKVEIKR
10 | ABT1-95-157 (other, VK dAb) VL: DIQMTQSPSSLSASVGDRVTITCRASQPIVRNLRWYQQKPGKAPKLLITSSSYLEPGVPSRFSGSGSGADFTLTISSLQPEDFATYHCQQGYRWPVTFGQGTKVEIKR
10 | ABT1-95-155 (other, VK dAb) VL: DIQMTQSPSSLSASVGDRVTITCRASQPIVRNLRWYQQKPGKAPKLLITSSSYLEPGVPSRFSGSGSGTDFTLTISSLQPEDSATYHCQQGYRWPVTFGQGTKVEIKR
3 | ABT1-141-54 (other, VK dAb) VL: DIQMTQSPSSLSASVGDRVTITCRASQWIQKQLAWYQQKPGKAPKLLIYSSSHLQSGVPSRFSGSGSGTDFTLTISSLQPEDFATYYCQQHLRVPMTFGQGTKVEIKR
0.5 | ABT1-95-158 (other, VK dAb) VL: DIQMTQSPSSLSASVGDRVTITCRASQPIVRNLRWYQQKPGKAPKLLIFSSSYLEPGVPSRFSGSGSGTDFTLTISSLQPEDFATYHCQQGYRWPVTFGQGTKVEIKR
10 | ABT1-95-156 (other, VK dAb) VL: DIQMTQSPSSLSASVGDRVTITCRASQPIVRNLRWYQQKPGKAPKLLIASSSYLEPGVPSRFSGSGSGTDFTLTISSLQPEDFATYHCLQGYRWPVTFGQGTKVEIKR
20 | ABT1-141-27 (other, VK dAb) VL: DIQMTQSPSSLSASVGDRVTITCRASQWIQKQLAWYQQKPGKAPKLLIYSSSYLQSGVPSRFSGSGSGTDFTLTISSLQPEDFATYYCQQGLRQPMTFGQGTKVEIKR
80 | ABT1-131 (other, VK dAb) VL: DIQMTQSPSSLSASVGDRVTITCRASQRINGNLRWYQQKPGKAPKLLIYSVSQLQSGVPSRFSGSGSGTDFTLTISSLQPEDFATYYCQQGYDWPPTFGQGTKVETKR
0.1 | ABT1-95-159 (other, VK dAb) VL: DIQMTQSPSSLSASVGDRVTITCRASQPIARNLRWYQQKPGKAPKLLIYSSSYLEPGVPSRFSGSGSGTDFTLTISSLQPEDFATYHCQQVYRWPVTFGQGTKVEIKR
300 | ABT1-160 (other, VK dAb) VL: DIQMTQSPSSLSASVGDRVTITCRASTEIVRNLRWYQQKPGKAPNLLIWGGSTLQSGVPSRFSGSGSGTDFTLTISSLQPEDFATYYCVQGYSLPVTFGQGTKVEIKR
> 10 | ABT1-95-154 (other, VK dAb) VL: DIQMTQSPSSLSASVGDRVTITCRASQPIVRNLRWYQQKPGKAPKLLISSSSYLEPGVPSRFSGSGSGTDFTLTISSLQPEDFATYHCQQGYRWPVTFGQGTKVEIKR
300 | ABT1-130 (other, VK dAb) VL: DIQMTQSPSSLSASVGDRVTITCRASQEIGLWLSWYQQKSGKAPKLLIYRHSSSQSGVPSRFSGSGSGTDFTLTISSLQPEDFATYYCQQTYKAPFTFGQGTKVEIKR
200 | ABT1-137 (other, VH dAb) VH: EVQLLESGGGLVQPGGSLRLSCAASGFTFERYWMAWVRQAPGKGLEWVSNINLTGSATYYADSVKGRFTISRDNSKNTLYLQMNSLRAEDTAVYYCAKGAFQFDYWGQGTLVTVSS
> 500 | ABT1-123 (other, VK dAb) VL: DIQMTQSPSSLSASVGDRVTITCRASQSIWTELKWYQQKPGKAPKLLIYGASLLQSGVPSRFSGSGSGTDFTLTISSLQPEDFATYYCQQFAYHPHTFGQGTKVEIKR

Reference: patent US20090291081A1 (AbbVie / Abbott, published 2009)
